Results on one substance are retold here after article doi:10.1101/2021.11.27.470173.

Read-outs that look alike come from different tables or passages of the source.

What all share (assay): SEC-MALS
On the technique in general: In gel filtration, larger molecules generally elute earlier.

Assay [1] has as its target cyanide dihydratase CynD from Bacillus safensis PER-URP-08 (Bacillus safensis PER-URP-08) (UniProt P0DXY3).
Assay [2] has the same target. This is another data set of the same source.
Assay [3] has the same target. This is another data set of the same source.

Regarding “cyanide dihydratase CynD from Bacillus safensis PER-URP-08 (from UniProt P0DXY3 1-330) (enzyme)”, the stoichiometry N was 3 to 5 mer in assay [1], 24 to 48 mer in assay [2] and 4 to 6 mer in assay [3].

As a reminder, the stoichiometry N is a count of units in the complex or per binding partner.
